This test has as its target T1, OX40 receptor on mouse CD4+ T-cells (mouse, UniProt P47741 20-272).
T1 sequence (looked up): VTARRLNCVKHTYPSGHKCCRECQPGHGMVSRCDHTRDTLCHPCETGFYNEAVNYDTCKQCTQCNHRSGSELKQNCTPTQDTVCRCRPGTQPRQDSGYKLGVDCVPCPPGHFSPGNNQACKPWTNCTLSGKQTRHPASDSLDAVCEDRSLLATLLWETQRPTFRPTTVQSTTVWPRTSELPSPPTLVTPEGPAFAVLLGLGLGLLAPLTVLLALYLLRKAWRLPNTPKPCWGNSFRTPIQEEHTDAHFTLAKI
Put plainly: cell-based or functional assay.

B1: murine OX40L polypeptide expressed from mOX40L_miR122 mRNA (SEQ ID NO: 66) on the surface of B16F10 cells (ligand)
chain: MEGEGVQPLDENLENGSRPRFKWKKTLRLVVSGIKGAGMLLCFIYVCLQLSSSPAKDPPIQRLRGAVTRCEDGQLFISSYKNEYQTMEVQNNSVVIKCDGLYIIYLKGSFFQEVKIDLHFREDHNPISIPMLNDGRRIVFTVVASLAFKDKVYLTVNAPDTLCEHLQINDGELIVVQLTPGYCAPEGSYHSTVNQVPL
On to B1, for which the “mouse IL-2 production by CD4+ T-cells (IL-2 ELISA), fold over mock-treated or non-translated mRNA control (about 6 ng/ml)” value is about 2 fold.

The values above are taken from patent US20230359371A1 (MODERNATX, published 2023).
